Experimental findings from patent US20110097326A1 (IRM, published 2011) are described below.

In experiment [1] the target is T1, recombinant Fc-TrkB antigen (human) (human, UniProt Q16620 32-430, limits assumed).
T1 construct: Biotinylated for the ForteBio assays; also called Fc-hTrkB; human Fc-TrkB; not shown: Fc part
In words: BLI (ForteBio Octet), biotinylated Fc-TrkB on streptavidin sensors, IgG at 1E-8 M. The protocol: (§1) The binding kinetics of IgGs and Fab fragments were analyzed using a ForteBio Octet biosensor. Recombinant Fc-TrkB antigen was biotinylated using the EZ-link biotinylation kit (Pierce) according to the manufacturer's methods. The antigen was then coupled to streptavidin-coated sensors (ForteBio). Fab binding was monitored in real time using bio-layer interferometry analysis and software provided by the manufacturer. Affinities were calculated from the determined association and dissociation constants.
IgGs with human V-segments were also prepared from transient transfections of CHO cells. IgG preparations were purified and further characterized by kinetic comparison with the reference IgG A10F18.2. Binding kinetics for two of the IgGs with human V-segments were analyzed using a ForteBio Octet system for real-time label-free monitoring of protein-protein interactions.
For orientation: Biolayer interferometry detects binding as a change in optical thickness at a sensor tip.

In experiment [2] the target is T1, recombinant Fc-TrkB antigen (human). In words: blocking ELISA on coated Fc-TrkB; blocked molecule: Fab TR151-1 at 50 nM, detected with anti-human kappa-HRP [upper panel].
Experiment [3] shares this target. In words: blocking ELISA on coated Fc-TrkB; blocked molecule: Fab TR3-1 at 50 nM (two replicate series), detected with anti-human kappa-HRP [upper panel]. On the technique in general: ELISA stands for enzyme-linked immunosorbent assay.
In experiment [4] the target is T2, TrkA-Fc fusion protein (human, UniProt P04629-2 34-407, limits assumed).
T2 construct: not shown: Fc part
In words: ELISA on Trk-hFc fusion proteins, goat anti-human Fab-HRP detection [panel C]. The protocol:
(§2) FIG. 9A-D illustrate ELISA assays showing specific binding of NVP-LFD253, NVP-LFD254, NVP-LFC325 and NVP-LFC327 to human TrkB-Fc fusion protein but not to human […] or TrkC-Fc fusion proteins. Purified IgG at 2 μg/ml was evaluated for specificity by examining its interaction with three different Trk family members (TrkA, TrkB and TrkC). Secondary Ab are replicates that were blocked and treated with only the goat-anti-human Fab-HRP detection Ab.
(§3) IgG with human V-segments (e.g., NVP-LFD253, NVP-LFD254, NVP-LFC325, and NVP-LFC327) bind specifically to TrkB but not to TrkA or TrkC. Purified IgG antibodies at 2 μg/ml were evaluated for specificity by examining its interaction with three different Trk family members (TrkA, TrkB and TrkC). Secondary Ab are replicates that were blocked and treated with only the goat-anti-human Fab-HRP detection Ab. As shown in FIG. 9A-D, none of LFD253, LFD254, LFC325 or LFC327 bind to either of these related Trk family receptors.

Experiment [5] addresses T3, human TrkC-Fc fusion protein (human, UniProt Q16288 32-429, limits assumed).
T3 construct: not shown: Fc part
Described as above. The procedure: as §2, §3

Experiment [6] addresses T1, recombinant Fc-TrkB antigen (human). Briefly: SPR (Biacore S51), Fc-hTrkB amine-coupled to CM-5 chip, IgG in flow, global 1:1 Langmuir fit. The procedure:
Binding studies on the improved antibodies were performed by immobilizing Fc-hTrkB onto a Series S CM-5 Biacore sensor chip (certified) (Biacore #BR-1005-30). Covalent binding of the Fc-fusion protein was done with the ‘Amine Coupling Kit’ (Biacore #BR-1000-50). The Fc-Fusion protein was attached to the EDC-activated dextran surface at 5 μg/ml in 10 mM sodium acetate, pH 4.5 (Biacore #BR-1003-50) at a flow rate of 10 μL/min
A range of concentrations of improved antibodies were flowed over the Fc-TrkB captured chip in PBS plus 100 mM NaCl, 0.005% P20 (Biacore #BR-1000-54). The resulting sensorgrams were analyzed using the Biacore S51 Evaluation Software. Data from all concentrations was fitted globally to a 1:1 Langmuir model.
Although this antibody is bivalent, the binding was treated as a 1:1 event.
For orientation: Surface plasmon resonance follows binding to a sensor surface in real time, without labels.

For experiment [7], the target named is TrkB on rat intestinal epithelial (RIE)-TrkB cells. Briefly: cell-based or functional assay.
The target of experiment [8] is T1, recombinant Fc-TrkB antigen (human). Briefly: BLI (ForteBio Octet), biotinylated Fc-TrkB on streptavidin sensors, Fab at 1E-7 M. The protocol:
as §1
(§4) Fabs with human V-segments were isolated from colony-lift binding assays and confirmed by antigen-binding ELISA. The Fab clones showing strong positive signals in antigen-binding ELISA were purified and further characterized by kinetic comparison with the reference Fab TR3-1. Binding kinetics were analyzed using a ForteBio Octet system for real-time label-free monitoring of protein-protein interactions.

Experiment [9] has the same target. Described as above. The protocol:
as §1, §4
The source holds these as a separate data set.

For experiment [10], the target named is T2, TrkA-Fc fusion protein. Briefly: ELISA on Trk-hFc fusion proteins, goat anti-human Fab-HRP detection [panel B]. The protocol:
as §2, §3

Experiment [11] concerns the target T3, human TrkC-Fc fusion protein. Described as above. The procedure: as §2, §3
Experiment [12] has as its target T2, TrkA-Fc fusion protein. In words: ELISA on Trk-hFc fusion proteins, goat anti-human Fab-HRP detection [panel A]. The protocol:
as §2, §3

The target in experiment [13] is T3, human TrkC-Fc fusion protein. Described as above. The protocol: as §2, §3
The target of experiment [14] is T2, TrkA-Fc fusion protein. Briefly: ELISA on Trk-hFc fusion proteins, goat anti-human Fab-HRP detection [panel D]. The procedure: as §2, §3
For experiment [15], the target named is T3, human TrkC-Fc fusion protein. The description is as above. The procedure:
as §2, §3

Changes are numbered by the printed parent chain. “And” between values parts separate entries of the source, which are not always exact repeats. Equal entries are not always repeated.

B1: A10F18.2 IgG (antibody, V domains shown)
VH: QVQLQQSGAELVRPGASVTLSCKASGYTFTDYEMHWVKQTPVHGLEWIGTIDPETAGTAYNQKFKGKAILTAGKSSSTAYMELRSLTSEDSAVYYCTGVTTWFAYWGQGTLVTVSA
VL: DVVMTQTPLSLPVSLGDQASISCRSSQSLVHSNGNTYLHWYLQKPGQSPNLLIYKVSNRFSGVPDRFSGSGSGTDFTLKISRVEAEDLGVYFCSQGTHVPYTFGGGTKLEIKR
As usually defined, the Kd is the equilibrium constant for the complex coming apart. A word on the koff: it is a measure of how fast the partners let go of each other. By kon is commonly meant the second-order rate constant of association. B1: in [1], the dissociation constant Kd was 0.0379 nM and 0.0477 nM; the koff was 1.44e-05 s⁻¹ and 1.89e-05 s⁻¹; the kon was 379000 M⁻¹ s⁻¹ and 396000 M⁻¹ s⁻¹. Moreover, the “IC50 (read off the curve)” value in [2] was approximately 5 nM. The “IC50 (read off the curve)” value in experiment [3] is approximately 6 nM.

B2: NVP-LFC325 (antibody, human IgG1, V domains shown)
VH: QVQLVQSGAEVKKPGASVKVSCKASGYTFTAYDMHWVRQAPGQGLEWMGWIDPNSGGTRYAQKFQGRVTMTRDTSISTAYMELSRLTSDDTAVYYCTGVTTWFAYWGQGTLVTVSS
VL: DIVMTQTPLSLPVTLGQPASISCRSSQSLLHSNGNTYLNWYQQTPGQPPRLLIYKISNRFSGVPDRFSGSGAGTDFTLKISRVEAEDVGVYYCMQGTHVPYTFGQGKLEIK
notes: IgG with human IgG1 constant region and human kappa constant region, from transiently transfected CHO cells; also called TR127 Vh & TR119 Vk
With B2, the Kd in experiment [1] is 0.0335 nM; in experiment [6] it was 0.114 nM. Also, the results for the koff in [1] and in experiment [6] were 1.52e-05 s⁻¹ and 4.85e-05 s⁻¹, respectively. Besides, the kon is 453000 M⁻¹ s⁻¹ in experiment [1] and approximately 425000 M⁻¹ s⁻¹ in experiment [6]. Moreover, the binding result (in the experiment with TrkA-Fc fusion protein [4]; in experiment [5]) was “no binding (tested: 2 ug/ml)” each time. Further, the “EC50, anoikis assay on RIE-TrkB cells” value in [7] is 41.8 ng/ml and 280 pM.

B3: Fab TR135-8 (Fab, V domains shown)
VH: B2 VH
VL: MDVVMTQSPLSLPVTLGQPASISCRSSQSLVHSNGNTYLNWYQQKPGQPPRLLIYKISNRFSGVPDRFSGSGAGTDFTLKISRVEAEDVGVYYCMQGTHEPYTFGQGKLEIK
notes: Fab with human V-segments, expressed in E. coli; detected with anti-human kappa
As for B3, in experiment [8], the Kd came out at 31.9 nM, the koff turned out to be 0.00458 s⁻¹ and the kon was 144000 M⁻¹ s⁻¹. In [9], the Kd was 32.3 nM, the koff was found to be 0.00439 s⁻¹ and the kon is 136000 M⁻¹ s⁻¹.

B4: NVP-LFD254 (antibody, human IgG1, V domains shown)
VH: B2 VH with N54R, G57D, R59S, A61K, S84H, T87R
VL: B2 VL
notes: IgG with human IgG1 constant region and human kappa constant region, from transiently transfected CHO cells; also called TR143 Vh & TR119 Vk
On to B4, for which, in the experiment with TrkA-Fc fusion protein [10], the binding result is “no binding (tested: 2 ug/ml)”. Further, in experiment [11], the binding result was “no binding (tested: 2 ug/ml)”. Moreover, in experiment [6], the Kd amounted to 0.117 nM, the koff worked out at 1.94e-05 s⁻¹ and the kon is 166000 M⁻¹ s⁻¹. The “EC50, anoikis assay on RIE-TrkB cells” value in experiment [7] is 24 ng/ml and 160 pM.

B5: NVP-LFD253 (antibody, human IgG1, V domains shown)
VH: B2 VH
VL: B2 VL with L30V, N39S, Y41L, T44R, V99E
notes: IgG with human IgG1 constant region and human kappa constant region, from transiently transfected CHO cells; also called TR127 Vh & TR137 Vk
Take B5: in [6], the Kd is 0.165 nM, the koff was 3.25e-05 s⁻¹ and the kon turned out to be 197000 M⁻¹ s⁻¹. Moreover, the “EC50, anoikis assay on RIE-TrkB cells” value in experiment [7] was 4.1 ng/ml and 28 pM. Moreover, in the experiment with TrkA-Fc fusion protein [12], the binding result was “no binding (tested: 2 ug/ml)”. Besides, the binding result in [13] is listed as “no binding (tested: 2 ug/ml)”.

B6: Fab TR144-1 (Fab, V domains shown)
VH: B2 VH with N54R, G57D, R59S, A61K, S84H, T87R
VL: B3 VL
notes: Fab with human V-segments, expressed in E. coli
On to B6, for which, in experiment [8], the Kd turned out to be 29.7 nM, the koff turned out to be 0.00366 s⁻¹ and the association rate constant (kon) was determined as 123000 M⁻¹ s⁻¹. Also, in experiment [9], the Kd came to 31.1 nM, the koff worked out at 0.00392 s⁻¹ and the kon turned out to be 126000 M⁻¹ s⁻¹.

B7: Fab TR134-4 (Fab, V domains shown)
VH: B2 VH
VL: B3 VL with V31L, K45T
notes: as for B6
For B7, in [8], the Kd was 35.6 nM, the koff came out at 0.00422 s⁻¹ and the kon was determined as 118000 M⁻¹ s⁻¹.

B8: NVP-LFC327 (antibody, human IgG1, V domains shown)
VH: B2 VH
VL: B2 VL with T7S, L30V, T44K, V99E
notes: IgG with human IgG1 constant region and human kappa constant region, from transiently transfected CHO cells; also called TR127 Vh & TR129 Vk
On to B8, for which, in the experiment with TrkA-Fc fusion protein [14], the binding result was “no binding (tested: 2 ug/ml)”. Besides, the binding result in experiment [15] is “no binding (tested: 2 ug/ml)”. Also, in experiment [1], the Kd was determined as 0.0197 nM, the koff was determined as 7.9e-06 s⁻¹ and the kon came out at 401000 M⁻¹ s⁻¹. For the same molecule, in experiment [6], the Kd amounted to 0.146 nM, the koff came to 5.76e-05 s⁻¹ and the kon stood at 393000 M⁻¹ s⁻¹. In addition, the “EC50, anoikis assay on RIE-TrkB cells” value in experiment [7] was 26.9 ng/ml and 180 pM.

B9: Fab TR151-1 (Fab, V domains shown)
VH: B2 VH with T97A, T101S
VL: B3 VL with N40S, Y42L, K45R
notes: as for B6
Take B9: in experiment [9], the Kd is 18.6 nM, the koff was determined as 0.00395 s⁻¹ and the kon came to 213000 M⁻¹ s⁻¹.

B10: Fab TR139-2 (Fab, V domains shown)
VH: B2 VH
VL: B3 VL with N40S, Y42L, K45R
notes: as for B6
Turning to B10, in experiment [8], the Kd is 14.2 nM, the koff was 0.00334 s⁻¹ and the on-rate constant (kon) is 235000 M⁻¹ s⁻¹. Moreover, in [9], the Kd was determined as 15.1 nM, the koff was determined as 0.00317 s⁻¹ and the kon is 211000 M⁻¹ s⁻¹.
